Source: US20160319287A1 (WESTF LISCHE WILHELMS UNIVERSIT T M NSTER, published 2016)
No end group written: not given here. FI = 5(6)-carboxyfluorescein

Experiments:
Experiment in all cases: cell-based or functional assay
MBP-M1^C-Ubc9-H6 = MBP-M1^C-Ubc9-H6 (murine, UniProt P63280 1-158)
MBP-M1^C-Gluc-H6 = MBP-M1^C-Gluc-H6 (Gaussia princeps)
MBP-M1^C-EGFP-H6 = biological target: MBP-M1^C-EGFP-H6
MBP-M1^C-SENP1-H6 = biological target: T1, MBP-M1^C-SENP1-H6 (human, UniProt Q9P0U3 419-644)
T1 sequence (Q9P0U3 whole entry, looked up): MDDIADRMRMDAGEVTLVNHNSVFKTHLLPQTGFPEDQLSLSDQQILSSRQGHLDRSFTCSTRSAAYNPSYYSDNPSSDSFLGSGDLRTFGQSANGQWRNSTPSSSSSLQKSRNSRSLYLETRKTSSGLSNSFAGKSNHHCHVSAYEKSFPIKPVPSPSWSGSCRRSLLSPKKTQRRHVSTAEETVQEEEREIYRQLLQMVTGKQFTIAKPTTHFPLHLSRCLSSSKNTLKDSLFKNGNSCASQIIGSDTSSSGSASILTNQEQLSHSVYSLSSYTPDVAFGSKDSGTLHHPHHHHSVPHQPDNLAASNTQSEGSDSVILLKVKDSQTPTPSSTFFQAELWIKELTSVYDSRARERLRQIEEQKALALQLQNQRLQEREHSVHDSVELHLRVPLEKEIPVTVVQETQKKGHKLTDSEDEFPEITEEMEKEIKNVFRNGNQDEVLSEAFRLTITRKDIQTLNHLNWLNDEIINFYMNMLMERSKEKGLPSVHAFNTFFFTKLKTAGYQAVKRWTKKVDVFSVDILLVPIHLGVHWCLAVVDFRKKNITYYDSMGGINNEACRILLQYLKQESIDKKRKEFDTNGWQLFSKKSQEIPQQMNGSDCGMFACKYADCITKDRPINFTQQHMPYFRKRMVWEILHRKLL

[1] = biological target: WT^C-Trx-H6 (AceL-TerL Int^C fused to hexahistidine-tagged thioredoxin) (UniProt P0AA25 2-109 = thioredoxin)
MBP-M1^C-mRFP-H6 = biological target: MBP-M1^C-mRFP-H6
Sequence of MBP-M1^C-mRFP-H6 (main, as listed by the source): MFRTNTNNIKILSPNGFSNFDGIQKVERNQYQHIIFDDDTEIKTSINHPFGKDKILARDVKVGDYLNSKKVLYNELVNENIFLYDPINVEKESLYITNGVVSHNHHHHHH

Sequence of WT^C-Trx-H6 (AceL-TerL Int^C fused to hexahistidine-tagged thioredoxin) (P0AA25 other isoform, or with tags, fused parts or gaps): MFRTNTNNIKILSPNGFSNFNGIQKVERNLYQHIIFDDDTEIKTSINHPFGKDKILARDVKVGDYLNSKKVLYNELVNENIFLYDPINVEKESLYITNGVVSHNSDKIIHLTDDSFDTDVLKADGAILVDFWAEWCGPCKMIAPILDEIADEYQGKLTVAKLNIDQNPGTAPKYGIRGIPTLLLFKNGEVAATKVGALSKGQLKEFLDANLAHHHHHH
Sequence of MBP-M1^C-Ubc9-H6 (P63280 other isoform, or with tags, fused parts or gaps): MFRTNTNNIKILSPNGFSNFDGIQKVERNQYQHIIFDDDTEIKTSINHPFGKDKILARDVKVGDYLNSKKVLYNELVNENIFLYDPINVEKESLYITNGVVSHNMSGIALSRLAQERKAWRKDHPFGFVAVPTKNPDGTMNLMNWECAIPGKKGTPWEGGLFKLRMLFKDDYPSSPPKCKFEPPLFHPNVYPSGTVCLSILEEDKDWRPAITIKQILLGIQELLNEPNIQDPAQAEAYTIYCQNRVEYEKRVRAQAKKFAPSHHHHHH
Sequence of MBP-M1^C-EGFP-H6 (main, as listed by the source): as the sequence (main, as listed by the source) above
Sequence of MBP-M1^C-Gluc-H6 (Gaussia princeps) (main, as listed by the source): as above

B1: pepWT^N (FI-KKEFE-IntN), synthetic peptide with the Int^N of the AceL-TerL intein (peptide)
peptide: {FI}-KKEFECVYGDTMVETEDGKIKIEDLYKRLA
yield of the N-terminally labelled splice product after 3 h at 8° C. (MBP-M1^C-Ubc9-H6): ~80% | yield of the N-terminally labelled splice product after 3 h at 8° C. (MBP-M1^C-Gluc-H6): ~80% | yield of the N-terminally labelled splice product after 3 h at 8° C. (MBP-M1^C-EGFP-H6): ~80% | yield of the N-terminally labelled splice product after 3 h at 8° C. (MBP-M1^C-SENP1-H6): ~80% | splicing rate at 37° C. against 8° C. [1]: ~50 fold slower | t½ of splicing at 8° C. [1]: 7.2 min | yield of the N-terminally labelled splice product after 3 h at 8° C. (MBP-M1^C-mRFP-H6): ~80%
